The target in experiment [1] is human PD-1 expressed on cells (human) (UniProt Q15116). The experiment can be described thus: flow cytometry, CHO-S hPD-1.
Experiment [2] concerns the target cynomolgus PD-1 expressed on cells (cynomolgus monkey) (UniProt B0LAJ3). The experiment can be described thus: flow cytometry, CHO-S Cyno-PD-1. In general terms: In flow cytometry, cells or beads pass a laser one at a time.
The target in experiment [3] is recombinant cynoPD-1 (construct not stated) (cynomolgus monkey) (UniProt B0LAJ3). The experiment can be described thus: ELISA.
Experiment [4] has as its target recombinant hPD-1 (construct not stated) (human) (UniProt Q15116). The experiment can be described thus: ELISA.

Experimental findings from US20260207767A1 are described below.

human PD-1 expressed on cells (human), sequence (Q15116 25-288): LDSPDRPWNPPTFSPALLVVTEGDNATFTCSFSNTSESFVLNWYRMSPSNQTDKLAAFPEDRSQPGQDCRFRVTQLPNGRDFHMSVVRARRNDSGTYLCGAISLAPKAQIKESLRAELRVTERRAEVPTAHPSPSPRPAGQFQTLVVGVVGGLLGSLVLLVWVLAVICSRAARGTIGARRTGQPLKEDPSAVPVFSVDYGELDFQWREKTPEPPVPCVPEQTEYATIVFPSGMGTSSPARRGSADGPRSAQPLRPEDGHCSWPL
cynomolgus PD-1 expressed on cells (cynomolgus monkey), sequence (B0LAJ3 entry or part of it limits assumed): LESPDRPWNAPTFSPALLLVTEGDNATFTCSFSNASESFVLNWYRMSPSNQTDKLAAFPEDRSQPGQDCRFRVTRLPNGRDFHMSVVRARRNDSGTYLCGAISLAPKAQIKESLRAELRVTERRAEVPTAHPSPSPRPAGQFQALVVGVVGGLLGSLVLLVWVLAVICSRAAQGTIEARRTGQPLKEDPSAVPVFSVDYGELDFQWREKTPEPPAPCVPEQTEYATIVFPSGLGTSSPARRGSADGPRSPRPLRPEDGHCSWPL
recombinant cynoPD-1 (construct not stated) (cynomolgus monkey), sequence (B0LAJ3 entry or part of it limits assumed): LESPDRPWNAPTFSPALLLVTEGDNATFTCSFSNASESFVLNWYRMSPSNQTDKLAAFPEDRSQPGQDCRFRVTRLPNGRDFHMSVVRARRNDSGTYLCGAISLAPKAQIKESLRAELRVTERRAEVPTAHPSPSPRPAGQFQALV
recombinant hPD-1 (construct not stated) (human), sequence (Q15116 25-167 limits assumed): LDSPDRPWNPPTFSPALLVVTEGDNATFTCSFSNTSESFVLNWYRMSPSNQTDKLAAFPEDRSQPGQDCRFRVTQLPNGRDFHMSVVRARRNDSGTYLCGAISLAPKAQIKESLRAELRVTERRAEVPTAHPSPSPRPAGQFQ

For the substance NC.hIgG1 (antibody), the results for the Max MFI in experiment [1] and in experiment [2] were 184 MFI and 206 MFI, respectively. Also, the Max OD amounted to 0.07 OD in experiment [3] and 0.05 OD in experiment [4].
